Test results as given in ChEMBL document CHEMBL2074194.

Assays:
[1] = substrate: C[N+](C)(C)CCO; assay: cells, lysate or membranes named
[2] = substrate: CC[N+](CC)(CC)CC; assay: cells, lysate or membranes named

B1: Solute carrier family 22 member 2 (Rattus norvegicus) (protein)
chain: MSTVDDILEHIGEFHLFQKQTFFLLALLSGAFTPIYVGIVFLGFTPDHHCWSPGAAKLSQRCGWSQAEELNYTVPGLGPSDEASFLSQCMRYEVDWNQSTLDCVDPLSSLAADRNQLPLGPCEHGWVYNTPGSSIVTEFNLVCAHSWMLDLFQSVVNVGFFIGAMMIGYLADRFGRKFCLLVTILINAISGALMAISPNYAWMLVFRFLQGLVSKAGWLIGYILITEFVGLGYRRMVGICYQIAFTVGLLILAGVAYVIPNWRWLQFAVTLPNFCFLLYFWCIPESPRWLISQNKIVKAMKIIKHIAKKNGKSVPVSLQNLTPDEDAGKKLNPSFLDLVRTPQIRKHTLILMYNWFTSSVLYQGLIMHMGLAGDNIYLDFFYSALVEFPAAFIIILTIDRVGRRYPWAVSNMVAGAACLASVFIPDDLQWLKITIACLGRMGITMAYEMVCLVNAELYPTYIRNLGVLVCSSMCDIGGIITPFLVYRLTDIWMEFPLVVFAVVGLVAGALVLLLPETKGKALPETIEDAENMQRPRKKKEKRIYLQVKQADRPLS
Work on B1 yielded a Km [1] of 2000 µM and a Km [2] of 160 µM.
